These results are taken from article doi:10.1101/557751.

Holding throughout (experiment): EMSA
A general note: Mobility shift assays separate free from complexed probe on a gel.

Data set [1] concerns CsiR (Pseudomonas putida (KT2440?)).
The subject of data set [2] is GcdR (Pseudomonas putida (KT2440?)).
Data set [3] concerns the target T1, CsiR (Pseudomonas putida (KT2440?)) (UniProt Q88IU1).
T1 sequence: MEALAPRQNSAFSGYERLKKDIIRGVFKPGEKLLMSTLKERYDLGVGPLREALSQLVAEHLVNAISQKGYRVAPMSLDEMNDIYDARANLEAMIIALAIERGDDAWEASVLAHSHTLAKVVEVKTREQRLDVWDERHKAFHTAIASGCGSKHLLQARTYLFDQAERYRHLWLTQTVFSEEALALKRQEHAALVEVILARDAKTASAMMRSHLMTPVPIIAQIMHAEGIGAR

Data set [4] concerns the target T2, GcdR (Pseudomonas putida (KT2440?)) (UniProt Q88RH3).
T2 sequence: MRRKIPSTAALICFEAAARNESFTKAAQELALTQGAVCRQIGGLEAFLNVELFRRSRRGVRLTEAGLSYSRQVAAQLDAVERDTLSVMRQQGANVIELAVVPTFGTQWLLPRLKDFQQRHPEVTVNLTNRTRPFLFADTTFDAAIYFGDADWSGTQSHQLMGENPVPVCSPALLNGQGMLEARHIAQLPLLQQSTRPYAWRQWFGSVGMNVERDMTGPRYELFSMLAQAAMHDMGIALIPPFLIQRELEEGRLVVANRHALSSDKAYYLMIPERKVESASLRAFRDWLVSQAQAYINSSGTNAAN

In general, Kd refers to a measure of binding affinity in units of concentration. Read a low Kd as a tighter complex. Substance csiR-csiD intergenic probe gave a Kd in data set [1] of 0.03 µM.
In the case of gcdR intergenic probe, in data set [2], the Kd was 0.0625 µM.
In the case of “AGTTCGATCTGCGTAAAGGCGTTCATGGCAGTGTCCTGGCTAAAAAAGTAGATGGCGCCGTCCGGTCATGACCTGGATCAGTGCGGGCGAGGTAAAAATATCGCCACTAACTGAAAATGTCTACATTTTTATTTTTCAACGACACTACTCGTGTTTGTCCATTGTTTTTCGTCAGCAGAGGGTTTCGGTATGATCGGCAAAACGTTTTGAGGAACAGGATCTTGGAAGCGCTCGCCCCCCGACAAAACTCAGCATTCAGCGGG (double strand) [csiR-csiD intergenic probe]”, the Kd in data set [3] is 0.03 µM.
Substance “CGGGTCGATCCAGTTGAAACTTGCTTTACCGACCATGAGCGAATCCTCGAAATAGGGGTCAGTTTCTTGTGCCTTTGAGCCTAGGCCTGATCGGCTGCGGCGACAAACGAGGATTGCGCACCGATTAGTGATATTTTGTCACTCCGTAAATCGGCAAAACGCCTTATTGACAGCCTTACAAGTGAGGTTGACGTACATGC (double strand) [gcdR intergenic probe]” returned a Kd in data set [4] of 0.0625 µM.
